Test results reported in patent US20250034601.

Tests used:
[1] = biological target: T1, MBP-tagged SlBSβ (beta subunit of Solanum lycopersicum benzaldehyde synthase)
T1 chain: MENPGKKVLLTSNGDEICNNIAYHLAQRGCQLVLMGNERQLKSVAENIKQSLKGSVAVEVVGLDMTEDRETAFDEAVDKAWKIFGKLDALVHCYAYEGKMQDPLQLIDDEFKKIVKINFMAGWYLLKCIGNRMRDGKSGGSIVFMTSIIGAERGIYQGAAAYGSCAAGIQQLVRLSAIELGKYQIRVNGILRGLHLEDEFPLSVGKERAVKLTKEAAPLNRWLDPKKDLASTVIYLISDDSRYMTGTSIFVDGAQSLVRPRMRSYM

[2] = biological target: T2, MBP-tagged PhBSβ (beta subunit of Petunia hybrida benzaldehyde synthase)
T2 chain: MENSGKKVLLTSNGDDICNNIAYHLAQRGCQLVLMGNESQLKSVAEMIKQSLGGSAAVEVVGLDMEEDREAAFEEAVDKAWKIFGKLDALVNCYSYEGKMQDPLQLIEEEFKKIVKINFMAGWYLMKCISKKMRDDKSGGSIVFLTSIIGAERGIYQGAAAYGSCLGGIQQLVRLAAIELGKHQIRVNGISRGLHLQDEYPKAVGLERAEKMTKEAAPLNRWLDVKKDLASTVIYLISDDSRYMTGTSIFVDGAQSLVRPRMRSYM

[3] = biological target: T3, MBP-tagged AtBSβ (beta subunit of Arabidopsis thaliana benzaldehyde synthase)
T3 chain: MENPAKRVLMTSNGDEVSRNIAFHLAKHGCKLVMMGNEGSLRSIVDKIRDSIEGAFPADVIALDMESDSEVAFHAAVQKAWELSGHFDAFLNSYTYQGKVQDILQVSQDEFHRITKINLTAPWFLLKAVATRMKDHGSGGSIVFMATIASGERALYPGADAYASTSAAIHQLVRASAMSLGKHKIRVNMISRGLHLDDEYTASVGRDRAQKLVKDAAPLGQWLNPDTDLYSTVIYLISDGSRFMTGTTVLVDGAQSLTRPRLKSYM

[4] = biological target: T4, MBP-tagged PdBSβ (beta subunit of Prunus dulcis benzaldehyde synthase)
T4 chain: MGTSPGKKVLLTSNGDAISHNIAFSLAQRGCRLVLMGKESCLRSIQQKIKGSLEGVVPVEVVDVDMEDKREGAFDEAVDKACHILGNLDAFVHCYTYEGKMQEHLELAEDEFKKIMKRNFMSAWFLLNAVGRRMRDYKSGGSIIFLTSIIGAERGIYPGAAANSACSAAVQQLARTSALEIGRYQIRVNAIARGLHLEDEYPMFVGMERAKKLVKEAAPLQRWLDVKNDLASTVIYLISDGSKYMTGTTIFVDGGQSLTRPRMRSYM

B1: MBP-tagged SlBSα (alpha subunit of Solanum lycopersicum benzaldehyde synthase) (protein)
chain: METHAKSVRQLEPWGELAGKVVMVTGASSGIGRDFCSDLSKAGCRIIAAARRIDRLQSLCDEINSNSSNGSTKSSQDLRAVAIELDVSANGSAIEAAVQKAWDAFGRIDGLVNNAGFRGSVLSPLELSEEEWEKIHKTNLRGAWLVTKYVCMHMRAANQGGSIINISSIAGINRGQLPGSLAYTSSKEALNSITKVLALELGPYKIRVNSISPGLFKSEITEGLIQKDWIKNIELRTIPLRTHGTSHPALTSVVRYLIHDSSEYVSGNMFIVDAGATLPGVPIFSSL
benzaldehyde synthase activity (GC-MS) [1]: benzaldehyde synthases from all three organisms (i.e., Solanum lycopersicum, Prunus dulcis, and Arabidopsis thaliana) showed activity only when two purified recombinant subunits were combined
BS activity of hybrid enzyme relative to SlBS [2]: activities of SlBSα-PhBSβ and SlBSα-PdBSβ were 6.5-fold lower and 2.7-fold higher, respectively, as compared with SlBS
BS activity of cross-species heterodimers (subunits mixed 1:1) [3]: only the AtBSβ subunit was not able to produce active enzymes upon interaction with PhBSα and SlBSα
BS activity of hybrid enzyme relative to SlBS [4]: activities of SlBSα-PhBSβ and SlBSα-PdBSβ were 6.5-fold lower and 2.7-fold higher, respectively, as compared with SlBS

B2: MBP-PhBSα (maltose binding protein-tagged alpha subunit of Petunia hybrida benzaldehyde synthase) (protein)
chain: MEKQTQARFLEPWRDLKGKVVMVTGASSGIGLDLCLDLAKAGCKIIAAARRVDRLKSLCNQINAAADDDDDNNRAVAVELDVSANGDAIEAAVKEAWGAFGRIDALVNNAGVRGTVHSPLELTEEECHNTFRTNLTGTWLVSKYVCKFMRDAKQGGSVINISSIAGLNRGQLPGGLAYVSSKGAVNMVTKVMALELGVDKIRVNSISPGLFKSEITQGLIQKEWLNNVAMRTIPLRTHGNSADPALTSVVRYLIHDSSEYVSGNLFIVDAGATLPGVPIFSSL
BS activity of cross-species heterodimers (subunits mixed 1:1) [1]: interactions of PdBSβ and SlBSβ with PhBSα resulted in hybrid enzymes with activities almost identical to that of PhBS
benzaldehyde synthase activity (benzoyl-CoA + NADPH, GC-MS) [2]: Neither of the two purified recombinant proteins displayed benzaldehyde synthase activity when tested alone ... however, benzaldehyde was efficiently formed when the two subunit proteins were mixed in equal amounts (e.g., a 1:1 ratio)
BS activity of cross-species heterodimers (subunits mixed 1:1) [3]: only the AtBSβ subunit was not able to produce active enzymes upon interaction with PhBSα and SlBSα
BS activity of cross-species heterodimers (subunits mixed 1:1) [4]: interactions of PdBSβ and SlBSβ with PhBSα resulted in hybrid enzymes with activities almost identical to that of PhBS

B3: MBP-tagged AtBSα (alpha subunit of Arabidopsis thaliana benzaldehyde synthase) (protein)
chain: MANQVADHLEPWRHLHGKVVMVTGASSGLGREFCLDLAKAGCRIVAAARRIDRLQSVCDEINQLTVTAPSSSSSSSSVNGPGSSRAVAVELDISADGPAIEKSVNKAWDAFGRIDALVNNAGVRGNVSSSLELSEEEWNNVFKTNLTGSWLVSKYVSIRMRDADQGGSIINVSSIAGLHRGYLPGAVAYNCSKAGVNTLAKVMAMELGVHKIRVNAISPGLFRSEITEGLMKKDWLHNVAMKTVPLRTFGTSDPALTSLVRYLVHDSSEYVSGNVYIVDAGATLPGVPIFSAL
BS activity of hybrid enzyme relative to AtBS [1]: increasing activity from 4.6- to 7.8-fold in AtBSα-SlBSβ and AtBSα-PdBSβ, respectively, relative to AtBS
BS activity of hybrid enzyme relative to AtBS [2]: interactions of the three tested β subunits with AtBSα promoted activities of hybrid proteins
benzaldehyde synthase activity (GC-MS) [3]: benzaldehyde synthases from all three organisms (i.e., Solanum lycopersicum, Prunus dulcis, and Arabidopsis thaliana) showed activity only when two purified recombinant subunits were combined
BS activity of hybrid enzyme [4]: the AtBSα-PdBSβ hybrid was as active as PdBS
BS activity of hybrid enzyme relative to AtBS [4]: increasing activity from 4.6- to 7.8-fold in AtBSα-SlBSβ and AtBSα-PdBSβ, respectively, relative to AtBS

B4: MBP-tagged PdBSα (alpha subunit of Prunus dulcis benzaldehyde synthase) (protein)
chain: MANQVADHLEPWRHLHGKVVMVTGASSGLGREFCLDLAKAGCRIVAAARRIDRLQSVCDEINQLTVTAPSSSSSSSSVNGPGSSRAVAVELDISADGPAIEKSVNKAWDAFGRIDALVNNAGVRGNVSSSLELSEEEWNNVFKTNLTGSWLVSKYVSIRMRDADQGGSIINVSSIAGLHRGYLPGAVAYNCSKAGVNTLAKVMAMELGVHKIRVNAISPGLFRSEITEGLMKKDWLHNVAMKTVPLRTFGTSDPALTSLVRYLVHDSSEYVSGNVYIVDAGATLPGVPIFSAL
BS activity of hybrid enzyme relative to PdBS [1]: the activities of hybrid enzymes comprising PdBSα were up to 2.5-fold lower than that of PdBS enzyme
BS activity of hybrid enzyme relative to PdBS [2]: the activities of hybrid enzymes comprising PdBSα were up to 2.5-fold lower than that of PdBS enzyme
benzaldehyde synthase activity (GC-MS) [4]: benzaldehyde synthases from all three organisms (i.e., Solanum lycopersicum, Prunus dulcis, and Arabidopsis thaliana) showed activity only when two purified recombinant subunits were combined
